Source: patent US20240117018A1

Tests used:
Assay in all cases: cell-based or functional assay
[1] = molecular target: 1012_11_TC21_3257 Env pseudovirus (HIV-1)
[2] = molecular target: 1054_07_TC4_1499 Env pseudovirus (HIV-1)
[3] = molecular target: 1056_10_TA11_1826 Env pseudovirus (HIV-1)
[4] = molecular target: 191084 B7-19 Env pseudovirus (HIV-1)
[5] = molecular target: 191955_A11 Env pseudovirus (HIV-1)
[6] = molecular target: 246F C1G Env pseudovirus (HIV-1)
[7] = molecular target: 249M B10 Env pseudovirus (HIV-1)
[8] = molecular target: 263-8 Env pseudovirus (HIV-1)
[9] = molecular target: 7030102001E5(Rev-) Env pseudovirus (HIV-1)
[10] = molecular target: 928-28 Env pseudovirus (HIV-1)
[11] = molecular target: AC10.0.29 Env pseudovirus (HIV-1)
[12] = molecular target: BF1266.431a Env pseudovirus (HIV-1)
[13] = molecular target: CAP210.2.00.E8 Env pseudovirus (HIV-1)
[14] = molecular target: CNE19 Env pseudovirus (HIV-1)
[15] = molecular target: CNE20 Env pseudovirus (HIV-1)
[16] = molecular target: CNE21 Env pseudovirus (HIV-1)
[17] = molecular target: CNE30 Env pseudovirus (HIV-1)
[18] = molecular target: CNE52 Env pseudovirus (HIV-1)
[19] = molecular target: Ce0682_E4 Env pseudovirus (HIV-1)
[20] = molecular target: Ce1176_A3 Env pseudovirus (HIV-1)
[21] = molecular target: Ce704809221_1B3 Env pseudovirus (HIV-1)
[22] = molecular target: HIV-0013095-2.11 Env pseudovirus (HIV-1)
[23] = molecular target: HIV-16055-2.3 Env pseudovirus (HIV-1)
[24] = molecular target: HIV-16845-2.22 Env pseudovirus (HIV-1)
[25] = molecular target: Q23.17 Env pseudovirus (HIV-1)
[26] = molecular target: Q259.d2.17 Env pseudovirus (HIV-1)
[27] = molecular target: Q769.d22 Env pseudovirus (HIV-1)
[28] = molecular target: REJO4541.67 Env pseudovirus (HIV-1)
[29] = molecular target: SC422661.8 Env pseudovirus (HIV-1)
[30] = molecular target: T257-31 Env pseudovirus (HIV-1)
[31] = molecular target: THRO4156.18 Env pseudovirus (HIV-1)
[32] = molecular target: WEAU_d15_410_787 Env pseudovirus (HIV-1)
[33] = molecular target: ZM109F.PB4 Env pseudovirus (HIV-1)
[34] = molecular target: ZM135M.PL10a Env pseudovirus (HIV-1)
[35] = molecular target: ZM197M.PB7 Env pseudovirus (HIV-1)
[36] = molecular target: ZM214M.PL15 Env pseudovirus (HIV-1)

B1: N49P23 (antibody, V domains shown)
VH: QVRLVQSGAGARKTGASMKLSCSTSGYTFTTHHGHFINWVRQARGQGLEWMGWMNPMTGQMNIEGKFQGRVTLTRDIYSDTAYMEMTRLTTGDTGTYYCARGDFGQNYPFHYWGQGSLVIVSS
VL: LSALTQPASVSGSPGQSVTISCSGTNRYLVSWYQQHPDKAPKLIIYDDNKRPSGISDRFSASRPDDTASLTISGLQTGDEATYWCASYERFGGGTRLTVLS
[1]
  IC50: 0.013 µg/mL
  IC80: 0.085 µg/mL
  MPI: 100
[2]
  IC50: 0.272 µg/mL
  IC80: 1.21 µg/mL
  MPI: 100
[3]
  IC50: 0.075 µg/mL
  IC80: 0.483 µg/mL
  MPI: 100
[4]
  IC50: 0.013 µg/mL
  IC80: 0.043 µg/mL
  MPI: 100
[5]
  IC50: > 50 µg/mL
  IC80: > 50 µg/mL
  MPI: 31
[6]
  IC50: > 50 µg/mL
  IC80: > 50 µg/mL
  MPI: 11
[7]
  IC50: > 50 µg/mL
  IC80: > 50 µg/mL
  MPI: 20
[8]
  IC50: 0.012 µg/mL
  IC80: 0.096 µg/mL
  MPI: 100
[9]
  IC50: 0.172 µg/mL
  IC80: 0.797 µg/mL
  MPI: 100
[10]
  IC50: 0.021 µg/mL
  IC80: 0.122 µg/mL
  MPI: 100
[11]
  IC50: > 50 µg/mL
  IC80: > 50 µg/mL
  MPI: 0
[12]
  IC50: 0.083 µg/mL
  IC80: 0.44 µg/mL
  MPI: 99
[13]
  IC50: > 50 µg/mL
  IC80: > 50 µg/mL
  MPI: 2
[14]
  IC50: > 50 µg/mL
  IC80: > 50 µg/mL
  MPI: 40
[15]
  IC50: 45.4 µg/mL
  IC80: > 50 µg/mL
  MPI: 51
[16]
  IC50: > 50 µg/mL
  IC80: > 50 µg/mL
  MPI: 0
[17]
  IC50: 0.143 µg/mL
  IC80: 0.68 µg/mL
  MPI: 100
[18]
  IC50: 0.014 µg/mL
  IC80: 0.051 µg/mL
  MPI: 100
[19]
  IC50: 1.39 µg/mL
  IC80: > 50 µg/mL
  MPI: 76
[20]
  IC50: 0.297 µg/mL
  IC80: 1.38 µg/mL
  MPI: 100
[21]
  IC50: 0.083 µg/mL
  IC80: 0.643 µg/mL
  MPI: 100
[22]
  IC50: 0.114 µg/mL
  IC80: 0.899 µg/mL
  MPI: 96
[23]
  IC50: > 50 µg/mL
  IC80: > 50 µg/mL
  MPI: 17
[24]
  IC50: > 50 µg/mL
  IC80: > 50 µg/mL
  MPI: 20
[25]
  IC50: 0.01 µg/mL
  IC80: 0.046 µg/mL
  MPI: 100
[26]
  IC50: 0.362 µg/mL
  IC80: 7.79 µg/mL
  MPI: 91
[27]
  IC50: 0.005 µg/mL
  IC80: 0.025 µg/mL
  MPI: 100
[28]
  IC50: 0.008 µg/mL
  IC80: 0.05 µg/mL
  MPI: 100
[29]
  IC50: 0.069 µg/mL
  IC80: 0.245 µg/mL
  MPI: 100
[30]
  IC50: 0.178 µg/mL
  IC80: 1.17 µg/mL
  MPI: 100
[31]
  IC50: 1.98 µg/mL
  IC80: 10.7 µg/mL
  MPI: 97
[32]
  IC50: 0.009 µg/mL
  IC80: 0.031 µg/mL
  MPI: 100
[33]
  IC50: 0.039 µg/mL
  IC80: 0.18 µg/mL
  MPI: 100
[34]
  IC50: > 50 µg/mL
  IC80: > 50 µg/mL
  MPI: 36
[35]
  IC50: 0.1 µg/mL
  IC80: 0.385 µg/mL
  MPI: 100
[36]
  IC50: 0.061 µg/mL
  IC80: 0.614 µg/mL
  MPI: 100

B2: N49P22 (antibody, V domains shown)
V domain 1: HIQLLQSGPQVKKSGDTVRISCETSGYNFVDSRIHWVRQTPEKRLRWMGWINPLQGGVNYAPEFQGRIRMTRDTFIDTVYVDLSGLTPADTAYYYCARGIDGKSYPFHFWGHGTRVTVFS
V domain 2: RFALTQPASVSGSPGQTITITCAGGSVSWFHFPPGKTPRLIIYESSKRPSGVSPRFSGSQSGSTASLIISGLQSDDEGTYFCSILEFFGRGTLVTVLS
[1]
  IC50: 15.7 µg/mL
  IC80: > 50 µg/mL
  MPI: 53
[2]
  IC50: 0.654 µg/mL
  IC80: 2.89 µg/mL
  MPI: 100
[3]
  IC50: 2.99 µg/mL
  IC80: > 50 µg/mL
  MPI: 69
[4]
  IC50: 0.343 µg/mL
  IC80: 1.64 µg/mL
  MPI: 98
[5]
  IC50: > 50 µg/mL
  IC80: > 50 µg/mL
  MPI: 9
[6]
  IC50: > 50 µg/mL
  IC80: > 50 µg/mL
  MPI: 10
[7]
  IC50: > 50 µg/mL
  IC80: > 50 µg/mL
  MPI: 4
[8]
  IC50: 1.83 µg/mL
  IC80: 18.5 µg/mL
  MPI: 89
[9]
  IC50: > 50 µg/mL
  IC80: > 50 µg/mL
  MPI: 21
[10]
  IC50: > 50 µg/mL
  IC80: > 50 µg/mL
  MPI: 32
[11]
  IC50: > 50 µg/mL
  IC80: > 50 µg/mL
  MPI: 0
[12]
  IC50: > 50 µg/mL
  IC80: > 50 µg/mL
  MPI: 0
[13]
  IC50: > 50 µg/mL
  IC80: > 50 µg/mL
  MPI: 6
[14]
  IC50: 0.873 µg/mL
  IC80: 8.19 µg/mL
  MPI: 92
[15]
  IC50: > 50 µg/mL
  IC80: > 50 µg/mL
  MPI: 18
[16]
  IC50: > 50 µg/mL
  IC80: > 50 µg/mL
  MPI: 0
[17]
  IC50: > 50 µg/mL
  IC80: > 50 µg/mL
  MPI: 30
[18]
  IC50: 1.7 µg/mL
  IC80: 10 µg/mL
  MPI: 91
[19]
  IC50: 1.13 µg/mL
  IC80: > 50 µg/mL
  MPI: 75
[20]
  IC50: > 50 µg/mL
  IC80: > 50 µg/mL
  MPI: 23
[21]
  IC50: 15.8 µg/mL
  IC80: > 50 µg/mL
  MPI: 60
[22]
  IC50: > 50 µg/mL
  IC80: > 50 µg/mL
  MPI: 9
[23]
  IC50: 4.66 µg/mL
  IC80: 39.7 µg/mL
  MPI: 83
[24]
  IC50: 4.6 µg/mL
  IC80: 41.9 µg/mL
  MPI: 87
[25]
  IC50: 0.321 µg/mL
  IC80: 2.4 µg/mL
  MPI: 96
[26]
  IC50: > 50 µg/mL
  IC80: > 50 µg/mL
  MPI: 15
[27]
  IC50: 0.043 µg/mL
  IC80: 0.259 µg/mL
  MPI: 100
[28]
  IC50: 0.792 µg/mL
  IC80: 12.1 µg/mL
  MPI: 84
[29]
  IC50: 0.12 µg/mL
  IC80: 0.544 µg/mL
  MPI: 100
[30]
  IC50: > 50 µg/mL
  IC80: > 50 µg/mL
  MPI: 43
[31]
  IC50: > 50 µg/mL
  IC80: > 50 µg/mL
  MPI: 32
[32]
  IC50: 1.54 µg/mL
  IC80: > 50 µg/mL
  MPI: 76
[33]
  IC50: > 50 µg/mL
  IC80: > 50 µg/mL
  MPI: 1
[34]
  IC50: > 50 µg/mL
  IC80: > 50 µg/mL
  MPI: 27
[35]
  IC50: 2.58 µg/mL
  IC80: 25.1 µg/mL
  MPI: 84
[36]
  IC50: > 50 µg/mL
  IC80: > 50 µg/mL
  MPI: 25
